Biological target: recombinant human TNFα (RDI) (human) (UniProt P01375)
Test: cell-based or functional assay

Sequence of recombinant human TNFα (RDI) (human) (P01375 77-233 limits assumed): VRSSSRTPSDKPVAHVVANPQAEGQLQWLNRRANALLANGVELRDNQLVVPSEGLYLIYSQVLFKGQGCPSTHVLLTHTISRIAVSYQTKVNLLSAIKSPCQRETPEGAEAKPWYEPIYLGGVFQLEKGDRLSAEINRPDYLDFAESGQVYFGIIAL
Sequence of TRYPSIN (commercial protease of the screen) (enzyme) (P00760 24-246): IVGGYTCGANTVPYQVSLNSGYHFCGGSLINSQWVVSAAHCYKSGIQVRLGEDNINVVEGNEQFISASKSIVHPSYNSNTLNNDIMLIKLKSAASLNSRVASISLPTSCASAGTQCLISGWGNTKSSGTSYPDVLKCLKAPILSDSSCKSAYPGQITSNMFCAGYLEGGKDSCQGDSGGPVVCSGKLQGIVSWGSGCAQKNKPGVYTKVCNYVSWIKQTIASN
Sequence of MMP12 (enzyme) (P39900 106-470): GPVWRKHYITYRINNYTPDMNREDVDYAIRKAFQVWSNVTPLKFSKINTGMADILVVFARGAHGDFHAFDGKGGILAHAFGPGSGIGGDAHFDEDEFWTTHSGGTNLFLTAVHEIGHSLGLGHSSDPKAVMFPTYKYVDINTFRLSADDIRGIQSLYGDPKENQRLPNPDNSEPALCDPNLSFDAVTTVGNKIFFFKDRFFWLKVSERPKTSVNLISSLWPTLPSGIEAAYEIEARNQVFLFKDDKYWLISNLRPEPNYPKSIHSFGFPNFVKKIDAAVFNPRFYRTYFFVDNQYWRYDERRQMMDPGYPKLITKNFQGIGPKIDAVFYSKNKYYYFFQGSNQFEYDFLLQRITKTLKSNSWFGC

MT1-MMP (enzyme)
log reduction in TNFα activity at the 50% survival level, L929 cytotoxicity bioassay after overnight digestion: 0.86 log

Tryptase (enzyme)
log reduction in TNFα activity at the 50% survival level, L929 cytotoxicity bioassay after overnight digestion: 0.62 log

ELASTASE (enzyme)
log reduction in TNFα activity at the 50% survival level, L929 cytotoxicity bioassay after overnight digestion: 1.45 log

TRYPSIN (commercial protease of the screen) (enzyme)
log reduction in TNFα activity at the 50% survival level, L929 cytotoxicity bioassay after overnight digestion: 2.3 log

MMP12 (enzyme)
log reduction in TNFα activity at the 50% survival level, L929 cytotoxicity bioassay after overnight digestion: 0.65 log

CHYMOTRYPSIN (enzyme)
log reduction in TNFα activity at the 50% survival level, L929 cytotoxicity bioassay after overnight digestion: 2.74 log

From US20050074865A1
